Test results taken from the emibetuzumab library of Makowski et al. (2022).

B1: VH:VL chains; a variant is named by its letters at X, in order (parent)
chain 1: QVQLVQSGAEVKKPGASVKVSCKASGYTFTDYXMHWVRQAPGQGLEWMGXVNPNXXXTTYNQKFEGRVTMTTDTSTSTAYMELRSLRSDDTAVYYCARXNXLDXWGQGTTVTVSS
chain 2: DIQMTQSPSSLSASVGDRVTITCSVSSSVSSIYLHWYQQKPGKAPKLLIYSTSNLASGVPSRFSGSGSGTDFTLTISSLQPEDFATYYCQVYSGYPLTFGGGTKVEIK

Variants of: B1
Assay: yeast display scFab, FACS + sequencing
How it was run: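 Heavy-chain CDR mutant scFab yeast surface library, FACS-sorted after labelling with biotinylated ovalbumin (260 μg/mL in PBSB, 3 h, room temperature) or soluble membrane proteins (130 μg/mL, 20 min on ice), plus anti-Myc. Gates collected the top 25% and bottom 10% of binders, and samples from two replicates were deep sequenced. Non-specific binding call: a sequence was positive if found in ≥3 of 4 positive samples (membrane protein and ovalbumin pooled) and no negatives, and negative by the converse rule.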

| Variant | non-specific binding call |
| --- | --- |
| AAARNFLF chain 1 V68I | binds |
| VAEATDLY | no binding |
| SAEKDDGS | no binding |
| FAAGSSGS | binds |
| VAEEDAGY | no binding |
| SAAGSVWY | no binding |
| VAEGDAAD | no binding |
| FAATDSVS | binds |
| SAAGGASD chain 1 L45S | no binding |
| VAATADVA | no binding |
| VAAKNDGA | no binding |
| DAEATSWV | no binding |
| VAAKSAAA chain 1 R38K | no binding |
| SAEEDDVY | no binding |
| DAAGADWY | no binding |
| SAAGGAAV chain 1 L45S | no binding |
| YAARGAAV | binds |
| FAAAGFVA | binds |
| FAAGGAWA | binds |
| YAEESSGV | no binding |
| DAARGDVV | no binding |
| VAEAAVGD | binds |
| DAARGAGD | no binding |

| Variant | non-specific binding call |
| --- | --- |
| DAATAYGS | binds |
| YAARGSAA | binds |
| DAAGASVD | no binding |
| FAAETDVF | no binding |
| YAAKSDGY | binds |
| DAAKNDAV | no binding |
| YAAGASVD | no binding |
| SAAGGDVA chain 1 L45S | no binding |
| DAEEDAGY | no binding |
| SAEGDAAD | no binding |
| YAEGASSF | no binding |
| YAARASGF | binds |
| YAAKTAAA | binds |
| VAEGGYAV | binds |
| SAARDFWV | no binding |
| YAEEGVGY | binds |
| YAEGDAAD | no binding |
| YAAGSFGY | binds |
| FAARDSGA | no binding |
| SAAGGDGV chain 1 L45S | no binding |
| YAAGGDGV | no binding |
| FAEGASSS | no binding |
| FAAGGAAS | binds |

| Variant | non-specific binding call |
| --- | --- |
| VAATADAV | no binding |
| SAAGGAAD chain 1 L45S | no binding |
| YAARAALD | binds |
| YAEGGYGV chain 1 V68I | binds |
| SAEGGSSA | no binding |
| SAAGADWS | no binding |
| SAEATDLY | no binding |
| YAAETDVF | no binding |
| FAAGSYAV | binds |
| FAEGSYAF | binds |
| VAARGFGS | no binding |
| DAEESDGA | no binding |
| DAARGDSA | no binding |
| YAEESDGS | no binding |
| YAAGGFAY | binds |
| VAARGDAA | no binding |
| YAAGSSWD | binds |
| YAAKNDGA | no binding |
| DAEGGSLD | no binding |
| DAARGDAA | no binding |
| DAARGDAV | no binding |
| AAEGDAAD | no binding |
| FAARAFGV | binds |

| Variant | non-specific binding call |
| --- | --- |
| FAEGDDVA | no binding |
| FAEGDDVV | no binding |
| FAEGDDVY | no binding |
| DAEATDGA | no binding |
| DAEGDDGA | no binding |
| YAAGGDVA | no binding |
| DAEATSLV | no binding |
| DAAGAAGV | no binding |
| AAEGGYAV | binds |
| SAAGGAGA chain 1 L45S | no binding |
| YAAAAFGY | binds |
| AAAGGSWS | binds |
| YAEESSAD | no binding |
| YAEESDWV | no binding |
| SAARDAVA | no binding |
| DAATADSS | no binding |
| YAEESDVA | no binding |
| VAARGAAV | no binding |
| VAATADSS | no binding |
| DAEATDVA | no binding |
| DAARAVSS | binds |
| VAEKDDGS | no binding |
| FAEGDDSA | no binding |

| Variant | non-specific binding call |
| --- | --- |
| FAAGGSGD | binds |
| YAEESAGD | no binding |
| VAATGVSD | binds |
| YAAGSDVY | no binding |
| YAEATDLY | no binding |
| VAATAAGA | no binding |
| FAAKTAAA | binds |
| YAATADSS | no binding |
| YAARGAWD | binds |
| DAEGDAGD | no binding |
| YAEESSSA | no binding |
| VAAAGAAV | no binding |
| DAARGAAA | no binding |
| YAARAAVD | binds |
| FAARSYGD | binds |
| DAARGSSV | no binding |
| VAATASWV | no binding |
| FAEGAAAV | no binding |
| YAEKDAGD | no binding |
| DAARGDGV | no binding |
| DAARGDGA | no binding |
| FAEGAAGD | no binding |
